We go through six molecules from patent publication US20040170622A1, “Methods and compositions for modulating XBP-1 activity” (President and Fellows of Harvard College, priority 2002, published 2004).

The subject of one assay is XBP-1 mRNA splicing. The assay can be described thus: XBP-1 mRNA splicing and XBP-1s protein in purified murine B cells (RT-PCR, Western blot). It is filed as cell-based. As to conditions: for XBP-1 mRNA splicing (RT-PCR): purified murine B cells, 24-72 h. Here is the method:
(§1) Mouse splenocytes or purified B cells (purified mature B cells were isolated from spleen and lymph nodes by magnetic CD43 depletion or B220 magnetic bead selection, Miltenyi Biotech, Auburn Calif.) were plated at 1×10^6 cells/ml in complete media containing RPMI 1640 supplemented with 10% fetal calf serum (FBS)(Hyclone Laboratories), glutamine (2 mM), penicillin (50 units/ml), streptomycin (50 μg/ml), Hepes (100 mM), nonessential amino acids (1×) sodium pyruvate (1 mM) and β-ME (50 μM) and stimulated with anti-CD40(1 μg/ml)(Pharmigen) or LPS (20 μg/ml)(Sigma). Cytokines (R&D Systems, Minneapolis, Minn.) were used at IL-4 (20 ng/ml), IL-2 (20 ng/ml), Il-5 (20 ng/ml), IL-6 (20 ng/ml ), IL-10 (20 ng/ml ) and IL-13 (20 ng/ml). Stimulated B cells were split to a cell concentration of 1×10^6 cells/ml with fresh media every 24 h. The BCL1 (CWS13.20-3B3 ATCC CRL 1699) cell line was cultured in RPMI media supplemented with 10% FBS, gentamicin (20 μg/ml), and β-ME (50 μM). To induce differentiation cells were plated at 2×10^5 cells/ml and treated with recombinant mouse IL-2 and IL-5 (20 ng/ml) (R&D systems).
Total RNA was isolated using TriZo1 (Gibco-BRL) or Qiashedder/Rneasy RNA purification columns (Quiagen). Northern Blots were performed as described (Rengarajan et al., 2000 Immunity. 12:293-300). […] The following probes were used after ^32P-radiolabeling with the ReadyPrime labeling system (Amersham-Pharmacia): XBP-1 (15-830 of the murine coding region), GRP94 and GRP78 (both a kind gift of R. J. Kaufman Univ. of Michigan (Lee et al., 2002)), Blimp (Nco1-Sca1 fragment), c-myc cDNA and Il-6 cDNA . […]
The UPR is induced in cells that detect irregular amounts of unfolded or unassembled protein in the lumen of the ER. […] Total RNAs were prepared at the indicated time point and XBP-1 mRNA levels (a) were determined by Northern blot analysis with γ-actin control (b). […] XBP-1s protein levels were also measured by Western blot analysis (d). […] In panel (C) XBP-1s protein levels were measured by Western blot analysis in the cells stimulated as indicated for 72 hours.
In general terms: A western blot detects proteins with antibodies after separation by electrophoresis.

The target in assay [1] is T1, IL-6/IL-6 R complex with gp130 (Homo sapiens, UniProt P08887).
T1 sequence (P08887 20-468): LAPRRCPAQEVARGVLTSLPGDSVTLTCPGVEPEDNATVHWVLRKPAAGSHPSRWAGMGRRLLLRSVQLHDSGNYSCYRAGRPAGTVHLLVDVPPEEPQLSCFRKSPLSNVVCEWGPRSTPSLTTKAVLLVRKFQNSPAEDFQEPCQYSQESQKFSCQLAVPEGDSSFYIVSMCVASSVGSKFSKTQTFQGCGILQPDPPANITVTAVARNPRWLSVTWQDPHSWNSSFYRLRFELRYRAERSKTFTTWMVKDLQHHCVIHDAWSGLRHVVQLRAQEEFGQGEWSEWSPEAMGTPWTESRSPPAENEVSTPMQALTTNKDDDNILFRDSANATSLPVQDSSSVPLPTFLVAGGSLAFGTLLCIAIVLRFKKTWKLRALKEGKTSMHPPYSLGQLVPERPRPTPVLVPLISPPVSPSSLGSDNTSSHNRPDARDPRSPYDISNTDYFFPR
T1 sequence (P40189 23-918 partner): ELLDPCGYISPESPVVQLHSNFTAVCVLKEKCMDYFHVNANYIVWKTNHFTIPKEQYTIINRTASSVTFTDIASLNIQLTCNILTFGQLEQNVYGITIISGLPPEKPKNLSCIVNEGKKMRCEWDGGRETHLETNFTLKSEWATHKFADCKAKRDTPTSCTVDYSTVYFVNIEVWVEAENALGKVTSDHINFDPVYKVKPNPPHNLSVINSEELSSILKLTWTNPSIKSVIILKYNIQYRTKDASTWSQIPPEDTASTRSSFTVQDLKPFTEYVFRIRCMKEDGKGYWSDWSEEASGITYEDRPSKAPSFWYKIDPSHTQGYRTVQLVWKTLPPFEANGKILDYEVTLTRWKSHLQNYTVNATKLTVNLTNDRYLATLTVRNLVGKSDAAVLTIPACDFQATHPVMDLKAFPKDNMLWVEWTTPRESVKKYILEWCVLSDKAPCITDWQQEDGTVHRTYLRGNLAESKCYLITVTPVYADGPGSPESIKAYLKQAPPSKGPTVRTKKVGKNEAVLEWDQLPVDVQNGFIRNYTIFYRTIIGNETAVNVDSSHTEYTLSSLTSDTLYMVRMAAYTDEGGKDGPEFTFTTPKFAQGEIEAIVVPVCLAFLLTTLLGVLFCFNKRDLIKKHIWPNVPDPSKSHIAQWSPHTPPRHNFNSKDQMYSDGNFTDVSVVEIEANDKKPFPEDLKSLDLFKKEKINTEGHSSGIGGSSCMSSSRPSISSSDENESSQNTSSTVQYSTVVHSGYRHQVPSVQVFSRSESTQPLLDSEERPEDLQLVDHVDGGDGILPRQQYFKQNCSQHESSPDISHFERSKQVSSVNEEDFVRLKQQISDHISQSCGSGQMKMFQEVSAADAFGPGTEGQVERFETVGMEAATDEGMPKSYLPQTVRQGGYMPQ
As to conditions: IL-6/IL-6R complex on the membrane with gp130; read-out: Kd (high affinity); cited from earlier work.

The next assay concerns the target T2, IL-6R (Homo sapiens, UniProt P08887).
T2 sequence (P08887 20-468): T1 sequence (P08887 20-468)
As to conditions: IL-6R alone; read-out: Kd (low affinity); cited from earlier work.

Assay [2] deals with XBP-1s (spliced form of murine XBP-1 protein, 371 aa) (mouse) (UniProt O35426). Description: cell-based or functional assay.
A further assay concerns spliced XBP-1. The assay can be described thus: Inhibition of transactivation function of spliced XBP-1, luciferase in NIH 3T3 cells. Type of assay: cell-based. The following applies: NIH 3T3, 200 ng spliced XBP-1, 200 ng mutant. Here is the method:
Versions of XBP-1 with various deletions of the C terminal transcription activating domain (e.g., consisting of the N terminal 225, 188, or 136 amino acids of the spliced form of XBP-1) that expressed high levels of protein by western analysis were created. The proteins were tested for their ability to inhibit the transactivation function of spliced XBP-1. Both the 188 and 136 N terminal mutants were extremely potent inhibitors (effective at a 1:1 ratio) of the spliced XBP-1. NIH 3T3 cells expressing XBP-1uc constructs were transfected with 200 ng of spliced XBP-1, yielding a relative luciferase activity of 44.5. 200 ng of XBP-N188 lowered the luciferase level to 1.8 and 200 ng of XBP-N136 lowered the luciferase activity to 2.2.

The subject of another assay is XBP-1 mRNA. The assay can be described thus: XBP-1 mRNA induction by cytokines in purified splenic B cells (Northern blot). Type of assay: cell-based, mouse. Here is the method: as §1
Total RNA was isolated using TriZo1 (Gibco-BRL) or Qiashedder/Rneasy RNA purification columns (Quiagen). Northern Blots were performed as described (Rengarajan et al., 2000 Immunity. 12:293-300). Briefly, 7-10 μg RNA were electrophoresed on 1.2% agarose, 6% formaldehyde gels transferred onto Genescreen membrane (NEN) and covalently bound to the membrane using UV Stratalinker (Stratagene). The following probes were used after ^32P-radiolabeling with the ReadyPrime labeling system (Amersham-Pharmacia): XBP-1 (15-830 of the murine coding region), GRP94 and GRP78 (both a kind gift of R. J. Kaufman Univ. of Michigan (Lee et al., 2002)), Blimp (Nco1-Sca1 fragment), c-myc cDNA and Il-6 cDNA . […]
Since XBP-1 is required for terminal B cell differentiation, it was important to identify the stimuli that regulate XBP-1 gene expression. A plethora of cytokines (IL-2, IL-4, IL-5, IL-6, IL-10, IL-13) has been implicated in plasma cell differentiation both in vitro and in vivo (reviewed in Calame, K. L. (2001 Nat. Inimunol. 2: 1103-1108; Liu, Y. J., and Banchereau, J. (1997). Sem Immunol 9: 235; Zubler, 1997Sem. Hematol 34:13). It was possible that these cytokines effected terminal B cell differentiation by modulating XBP-1 gene expression. Thus, the ability of these cytokines to upregulate XBP-1 mRNA transcripts in B cells was tested. Purified splenic B cells were cultured for 24 h in the presence or absence of various cytokines and XBP-1 expression determined by Northern blot analysis. […] XBP-1 mRNA levels were determined by Northern blot analysis with γ-actin as control. […] XBP-1 mRNA levels were determined as above. […]

Setting [3] is: purified B cells treated with IL-4.

Take lipopolysaccharide [LPS]: the “spliced XBP-1 protein production” value in the assay on XBP-1 mRNA splicing (in the absence of other stimuli) is listed as “competent to produce substantial amounts of spliced XBP-1 protein”. In addition, the “XBP-1 mRNA splicing (RT-PCR)” value with XBP-1 mRNA splicing is given as “an additional band of 145 bp corresponding to the spliced form of XBP-1 mRNA”.

As a reminder, the Kd is the concentration at which binding is half-saturated. As for “IL-6: multi-functional cytokine; mature human IL-6 is a 185 amino acid polypeptide”, the Kd in assay [1] is ~0.01 nM; with IL-6R, ~1 nM.

For “XBP-1u (unspliced form of murine XBP-1 protein, 267 aa) (from UniProt O35426 1-267)”, in assay [2], the fold induction of luciferase, XBP-luciferase reporter in NIH3T3 cells, 5 uM MG-132, with unspliced XBP-1 (fold induction) worked out at 5.8 and the fold induction of luciferase, XBP-luciferase reporter in NIH3T3 cells, 5 uM MG-132, without unspliced XBP-1 (fold induction) was determined as 41.9.

B1: XBP-N188: XBP-1 deletion mutant consisting of the N terminal 188 amino acids of the spliced form (protein)
chain: MVVVAAAPSAATAAPKVLLLSGQPASGGRALPLMVPGPRAAGSEASGTPQARKRQRLTHLSPEEKALRRKLKNRVAAQTARDRKKARMSELEQQVVDLEEENHKLQLENQLLREKTHGLVVENQELRTRLGMDTLDPDEVPEVEAKGSGVRLVAGSAESAAGAGPVVTSPEHLPMDSDTVASSDSESD
B1 yielded a relative luciferase activity with spliced XBP-1 of 1.8.

B2: IL-4: multi-functional cytokine; recombinant IL-4 used at 20 ng/ml (protein, UniProt P05112 25-153, looked up)
Interleukin-4: HKCDITLQEIIKTLNSLTEQKTLCTELTVTDIFAASKNTTEKETFCRAATVLRQFYSHHEKDTRCLGATAQQFHRHKQLIRFLKRLDRNLWGLAGLNSCPVKEANQSTLENFLERLKTIMREKYSKCSS
As for B2, the “XBP-1 mRNA splicing (RT-PCR)” value in the assay with XBP-1 mRNA splicing is “unable to induce splicing”. In the assay with XBP-1 mRNA (setting [3]), the “time at which XBP-1 transcript increase is apparent” value is ≤ 1 h and the “time of peak of XBP-1 transcripts” value is “around 8 h”. Also, the XBP-1 transcript induction entry in the assay on XBP-1 mRNA (purified splenic B cells, cytokines 20 ng/ml, 24 h) was “induced a significant amount of XBP-1 ranscript”.

B3: XBP-N136: XBP-1 deletion mutant consisting of the N terminal 136 amino acids of the spliced form (protein, UniProt O35426 1-136, looked up, fragment)
chain: MVVVAAAPSAATAAPKVLLLSGQPASGGRALPLMVPGPRAAGSEASGTPQARKRQRLTHLSPEEKALRRKLKNRVAAQTARDRKKARMSELEQQVVDLEEENHKLQLENQLLREKTHGLVVENQELRTRLGMDTLD
modifications: XBP-1s
notes: XBP-1 deletion mutant consisting of the N terminal 136 amino acids of the spliced form
In turn, B3 came in with a relative luciferase activity with spliced XBP-1 of 2.2.
